According to patent publication US20140134179A1 (published 2014):

Legend:
mTEM8 = experiment: ELISA
[1] = molecular target: T1, hTEM8(ED)-Fc fusion protein (UniProt Q9H6X2 33-321); experiment: ELISA
T1 chain: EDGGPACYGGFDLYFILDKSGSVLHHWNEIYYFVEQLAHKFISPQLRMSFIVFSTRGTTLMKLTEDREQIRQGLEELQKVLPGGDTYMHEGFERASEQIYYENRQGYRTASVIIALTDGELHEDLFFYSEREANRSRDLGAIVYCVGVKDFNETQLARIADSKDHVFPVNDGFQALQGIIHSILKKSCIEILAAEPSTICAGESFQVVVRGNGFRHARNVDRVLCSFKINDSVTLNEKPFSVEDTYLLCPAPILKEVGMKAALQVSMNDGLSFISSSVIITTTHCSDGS

[2] = molecular target: human TEM8 on CHO cells (CHO-TEM8) (UniProt Q9H6X2 33-564); experiment: flow cytometry, inhibition of PA-FITC binding

B1: L1 (Fab, V domains shown)
VH: QVQLVESGGGLVQPGGSLRLSCAASGFTFNSYAMSWVRQAPGKGLEWVSLISSGSSTYYADSVKGRFTISRDNSKNTLYLQMNSLRAEDTAVYYCARAGFKFDNWGQGTLVTVSS
VL: DIELTQPPSVSVAPGQTARISCSGDSIPNYSVSWYQQKPGQAPVLVIYADSNRPSGIPERFSGSNSGNTATLTISGTQAEDEADYYCQSYDNTSPDLVFGGGTKLTVLG
EC50 (mTEM8): 0.21 nM

B2: L1 Fab (Fab, V domains shown)
VH: B1 VH
VL: B1 VL
EC50 [1]: 0.18 nM | EC50 [2]: 0.0342 µg/mL

B3: L2 Fab (Fab, V domains shown)
VH: QVQLKESGPALVKPTQTLTLTCTFSGFSLSTSGGGVSWIRQPPGKALEWLAHIYSNDDKSYSTSLKTRLTISKDTSKNQVVLTMTNMDPVDTATYYCARGGYFLDYWGQGTLVTVSS
VL: DIELTQPPSVSVAPGQTARISCSGDNIGGIYVHWYQQKPGQAPVLVIYADSKRPSGIPERFSGSNSGNTATLTISGTQAEDEADYYCQSYDITSLVFGGGTKLTVL
EC50 [2]: 0.0218 µg/mL

B4: L2 (Fab, V domains shown)
VH: B3 VH
VL: B3 VL
EC50 (mTEM8): 0.28 nM

B5: L3 Fab (Fab, V domains shown)
VH: QVQLQQSGPGLVKPSQTLSLTCAISGDSVSTNGAAWGWIRQSPGRGLEWLGRIYYRSKWYNDYAVSVKSRITINPDTSKNQFSLQLNSVTPEDTAVYYCARMPGGFLFDLWGQGTLVTVSS
VL: DIELTQPPSVSVAPGQTARISCSGDNIRSYYAHWYQQKPGQAPVLVIYGDSKRPSGIPERFSGSNSGNTATLTISGTQAEDEADYYCSSYASHDYVFGGGTKLTVLG
EC50 [2]: 0.0364 µg/mL

B6: L3 (Fab, V domains shown)
VH: B5 VH
VL: B5 VL
EC50 (mTEM8): 0.36 nM

B7: L5 (Fab, V domains shown)
VH: QVQLVESGGGLVQPGGSLRLSCAASGFTFNSYGLSWVRQAPGKGLEWVSNISSNGSYTYYADSVKGRFTISRDNSKNTLYLQMNSLRAEDTAVYYCARAGYGLFDVWGQGTLVTVSS
VL: DIELTQPPSVSVAPGQTARISCSGDKLREYYVHWYQQKPGQAPVLVIYGDNKRPSGIPERFSGSNSGNTATLTISGTQAEDEADYYCSSWAGSRSGTVFGGGTKLTVL
EC50 (mTEM8): 0.22 nM
